We go through one molecule from patent US20240002495A1 (MITSUBISHI TANABE PHARMA, published 2024).

The target of the assay is T1, recombinant human ST2 Fc chimera (ALX-201-367-C050, Enzo Life Science) (human, UniProt Q01638 19-328).
T1 construct: bought; also called human IL-33 receptor protein; human IL-33 receptor (ST2)
T1 sequence (looked up): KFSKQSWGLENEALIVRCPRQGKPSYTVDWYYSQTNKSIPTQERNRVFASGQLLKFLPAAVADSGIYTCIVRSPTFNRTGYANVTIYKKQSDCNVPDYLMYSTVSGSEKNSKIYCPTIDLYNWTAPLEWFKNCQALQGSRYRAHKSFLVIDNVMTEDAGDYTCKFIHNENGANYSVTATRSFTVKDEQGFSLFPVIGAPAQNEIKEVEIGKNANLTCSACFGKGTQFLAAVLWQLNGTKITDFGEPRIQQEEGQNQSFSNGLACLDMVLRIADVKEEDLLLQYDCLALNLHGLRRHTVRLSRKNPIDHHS
Put plainly: SPR (ProteOn), hIL-33 on chip, ST2 Fc chimera as analyte. The text has this: Each peptide was N-terminally biotinylated, and was immobilized as ligand onto a NeutrAvidin sensor chip of a surface plasmon resonance (SPR) system (ProteOn XPR36, available from Bio-Rad Laboratories, Inc.). […] The resulting protein (hIL-33) as a ligand was immobilized onto the SPR sensor chip. Each test antibody, the human IL-33 receptor protein (recombinant human ST2 Fc chimera) (ALX-201-367-C050, available from Enzo Life Science, Inc.), or buffer (0.05% Tween20/PBS) alone was then loaded as an analyte onto the sensor chip containing the ligand immobilized thereon (antibody concentration: […]; flow rate: 100 μl/min), to allow them to bind to the ligand. After washing, the amount of analyte (amount of antibody) bound to the ligand on the sensor chip was measured as RU value.

B1: mature human IL-33 (residues 112 to 270) N-terminally linked with the Avitag sequence, biotinylated (ligand, not shown: small tags and cut ends)
chain: SITGISPITEYLASLSTYNDQSITFALEDESYEIYVEDLKKDEKKDKVLLSYYESQHPSNESGDGVDGKMLMVTLSPTKDFWLHANNKEHSVELHKCEKPLPDQAFFVLHNMHSNCVSFECKTDPGVFIGVKDNHLALIKVDSSENLCTENILFKLSET
modifications: biotin on the AviTag sequence (biotin ligase reaction)
notes: also called hIL-33
Take B1: the binding result is given as “binds”.
